Source: article doi:10.1101/2020.10.19.345710 (bioRxiv, 2020)

Molecular target: the molecule itself
Assay: thioflavin T fluorescence

| Protein | binding result |
| --- | --- |
| FUS LC, low complexity domain of Fused in sarcoma (FUS), residues 1-163 (domain or fragment, UniProt P35637 1-163, looked up) MASNDYTQQATQSYGAYPTQPGQGYSQQSSQPYGQQSYSGYSQSTDTSGYGQSSYSSYGQSQNTGYGTQSTPQGYGSTGGYGSSQSSQSSYGQQSSYPGYGQQPAPSSTSGSYGSSSQSSSYGQPQSGSYSQQPSYGGQQQSYGQQQSYNPPQGYGQQNQYNS | binds |
| FUS LC G156E, low complexity domain of FUS (residues 1-163) with the pathogenic G156E mutation (domain or fragment, UniProt P35637 1-163, looked up) MASNDYTQQATQSYGAYPTQPGQGYSQQSSQPYGQQSYSGYSQSTDTSGYGQSSYSSYGQSQNTGYGTQSTPQGYGSTGGYGSSQSSQSSYGQQSSYPGYGQQPAPSSTSGSYGSSSQSSSYGQPQSGSYSQQPSYGGQQQSYGQQQSYNPPQGYEQQNQYNS | binds |
